Results reported in the supplement of paper PMC10567573.

B1: MATN2 (parent)
chain: TDDSYSCHCLKGFTLNPDKKTCRR

Variants of: B1
Experiment: protein stability index of a GFP-peptide fusion (GPS, HEK-293T) (PSI 1-6); higher = more stable
Settings: c terminus: a fixed tail appended
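Note: lentivirally expressed fusions sorted by FACS into six bins by GFP to DsRed ratio, PSI derived from sequencing read proportions per bin multiplied by bin number.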

Row | Variant | protein stability index
1 | TDDGYSCHCLKGFTLNPDKKTCRR | 1.88
2 | TDDHYSCHCLKGFTLNPDKKTCRR | 2.66
3 | TDDIYSCHCLKGFTLNPDKKTCRR | 2.87
4 | TDDKYSCHCLKGFTLNPDKKTCRR | 2.56
5 | TDDLYSCHCLKGFTLNPDKKTCRR | 1.84
6 | TDDMYSCHCLKGFTLNPDKKTCRR | 2.22
7 | TDDNYSCHCLKGFTLNPDKKTCRR | 1.23
8 | TDDPYSCHCLKGFTLNPDKKTCRR | 2.64
9 | TDDQYSCHCLKGFTLNPDKKTCRR | 2.3
10 | TDDRYSCHCLKGFTLNPDKKTCRR | 2.03
11 | TDDTYSCHCLKGFTLNPDKKTCRR | 2.04
12 | TDDVYSCHCLKGFTLNPDKKTCRR | 2.22
13 | TDDWYSCHCLKGFTLNPDKKTCRR | 1.81
14 | TDDYYSCHCLKGFTLNPDKKTCRR | 1.77
15 | TDDSASCHCLKGFTLNPDKKTCRR | 3.04
16 | TDDSDSCHCLKGFTLNPDKKTCRR | 2.72
17 | TDDSESCHCLKGFTLNPDKKTCRR | 2.74
18 | TDDSFSCHCLKGFTLNPDKKTCRR | 2.36
19 | TDDSGSCHCLKGFTLNPDKKTCRR | 2.69
20 | TDDSHSCHCLKGFTLNPDKKTCRR | 2.66
21 | TDDSISCHCLKGFTLNPDKKTCRR | 2.06
22 | TDDSKSCHCLKGFTLNPDKKTCRR | 2.65
23 | TDDSLSCHCLKGFTLNPDKKTCRR | 3.53
24 | TDDSMSCHCLKGFTLNPDKKTCRR | 3.58

Row | Variant | protein stability index
25 | TDDSNSCHCLKGFTLNPDKKTCRR | 3.36
26 | TDDSPSCHCLKGFTLNPDKKTCRR | 2.14
27 | TDDSQSCHCLKGFTLNPDKKTCRR | 3.42
28 | TDDSRSCHCLKGFTLNPDKKTCRR | 2
29 | TDDSSSCHCLKGFTLNPDKKTCRR | 2.66
30 | TDDSTSCHCLKGFTLNPDKKTCRR | 2.58
31 | TDDSVSCHCLKGFTLNPDKKTCRR | 2.86
32 | TDDSWSCHCLKGFTLNPDKKTCRR | 2.23
33 | TDDSYCCHCLKGFTLNPDKKTCRR | 2.55
34 | TDDSYDCHCLKGFTLNPDKKTCRR | 2.94
35 | TDDSYECHCLKGFTLNPDKKTCRR | 2.31
36 | TDDSYFCHCLKGFTLNPDKKTCRR | 1.26
37 | TDDSYGCHCLKGFTLNPDKKTCRR | 2.4
38 | TDDSYHCHCLKGFTLNPDKKTCRR | 2.55
39 | TDDSYICHCLKGFTLNPDKKTCRR | 1.89
40 | TDDSYKCHCLKGFTLNPDKKTCRR | 3.07
41 | TDDSYLCHCLKGFTLNPDKKTCRR | 2.15
42 | TDDSYMCHCLKGFTLNPDKKTCRR | 1.68
43 | TDDSYNCHCLKGFTLNPDKKTCRR | 1.93
44 | TDDSYPCHCLKGFTLNPDKKTCRR | 2.5
45 | TDDSYQCHCLKGFTLNPDKKTCRR | 1.76
46 | TDDSYRCHCLKGFTLNPDKKTCRR | 2.4
47 | TDDSYTCHCLKGFTLNPDKKTCRR | 2.19
48 | TDDSYVCHCLKGFTLNPDKKTCRR | 3.42

Row | Variant | protein stability index
49 | TDDSYWCHCLKGFTLNPDKKTCRR | 2.32
50 | TDDSYYCHCLKGFTLNPDKKTCRR | 2.12
51 | TDDSYSAHCLKGFTLNPDKKTCRR | 4.59
52 | TDDSYSDHCLKGFTLNPDKKTCRR | 4.78
53 | TDDSYSEHCLKGFTLNPDKKTCRR | 4.61
54 | TDDSYSFHCLKGFTLNPDKKTCRR | 3.96
55 | TDDSYSGHCLKGFTLNPDKKTCRR | 4.45
56 | TDDSYSHHCLKGFTLNPDKKTCRR | 3.54
57 | TDDSYSIHCLKGFTLNPDKKTCRR | 3.9
58 | TDDSYSKHCLKGFTLNPDKKTCRR | 4.21
59 | TDDSYSLHCLKGFTLNPDKKTCRR | 4.59
60 | TDDSYSMHCLKGFTLNPDKKTCRR | 4.22
61 | TDDSYSNHCLKGFTLNPDKKTCRR | 4.38
62 | TDDSYSPHCLKGFTLNPDKKTCRR | 3.65
63 | TDDSYSQHCLKGFTLNPDKKTCRR | 4.27
64 | TDDSYSRHCLKGFTLNPDKKTCRR | 3.88
65 | TDDSYSSHCLKGFTLNPDKKTCRR | 4.54
66 | TDDSYSTHCLKGFTLNPDKKTCRR | 4.54
67 | TDDSYSVHCLKGFTLNPDKKTCRR | 4.28
68 | TDDSYSWHCLKGFTLNPDKKTCRR | 3.21
69 | TDDSYSYHCLKGFTLNPDKKTCRR | 3.71
70 | TDDSYSCACLKGFTLNPDKKTCRR | 1.66
71 | TDDSYSCCCLKGFTLNPDKKTCRR | 2.05
72 | TDDSYSCDCLKGFTLNPDKKTCRR | 2.05

Row | Variant | protein stability index
73 | TDDSYSCECLKGFTLNPDKKTCRR | 2.84
74 | TDDSYSCFCLKGFTLNPDKKTCRR | 2.14
75 | TDDSYSCGCLKGFTLNPDKKTCRR | 2.76
76 | TDDSYSCICLKGFTLNPDKKTCRR | 2.27
77 | TDDSYSCKCLKGFTLNPDKKTCRR | 4.02
78 | TDDSYSCLCLKGFTLNPDKKTCRR | 2.4
79 | TDDSYSCMCLKGFTLNPDKKTCRR | 2.92
80 | TDDSYSCNCLKGFTLNPDKKTCRR | 1.91
81 | TDDSYSCPCLKGFTLNPDKKTCRR | 1.63
82 | TDDSYSCQCLKGFTLNPDKKTCRR | 2.18
83 | TDDSYSCRCLKGFTLNPDKKTCRR | 2.51
84 | TDDSYSCSCLKGFTLNPDKKTCRR | 2.3
85 | TDDSYSCTCLKGFTLNPDKKTCRR | 2.08
86 | TDDSYSCVCLKGFTLNPDKKTCRR | 2.33
87 | TDDSYSCWCLKGFTLNPDKKTCRR | 2.63
88 | TDDSYSCYCLKGFTLNPDKKTCRR | 2.71
89 | TDDSYSCHALKGFTLNPDKKTCRR | 4.6
90 | TDDSYSCHELKGFTLNPDKKTCRR | 4.37
91 | TDDSYSCHFLKGFTLNPDKKTCRR | 3.47
92 | TDDSYSCHGLKGFTLNPDKKTCRR | 4.47
93 | TDDSYSCHHLKGFTLNPDKKTCRR | 3.75
94 | TDDSYSCHILKGFTLNPDKKTCRR | 3.77
